Bounds are passed on as bounds.

The term Kd denotes the constant that tells how readily two partners part at equilibrium. As a reminder, the IC50 is the concentration needed to halve the response being measured.

One assay concerns the target HLA-A*26:01. Briefly: IEDB peptide-MHC binding, purified MHC/competitive/radioactivity; filed as Kd, often an IC50 or EC50 that approximates it; ≥ and ≤ were set here for values at or beyond the usual limits of such assays.
Another assay has as its target HLA-A*32:01. Described as above.
The next assay concerns the target HLA-A*30:02. The assay is described as above.
Another assay addresses HLA-A*30:01. The description is as above.
In assay [1] the target is HLA-A*01:01. Briefly: IEDB peptide-MHC binding, purified MHC/direct/fluorescence; filed as Kd, often an IC50 or EC50 that approximates it; ≥ and ≤ were set here for values at or beyond the usual limits of such assays. The note with it: source organism: Homo sapiens.
The next assay has as its target HLA-A*03:01. Described as above.
A further assay has as its target HLA-A*11:01. The assay is described as above.
The next assay addresses HLA-B*15:01. The description is as above.
The next assay concerns the target HLA-B*58:01. The assay is described as above. To be noted: source organism: Homo sapiens.
A further assay deals with HLA-B*51:01. Briefly: IEDB peptide-MHC binding, purified MHC/competitive/radioactivity; filed as Kd, often an IC50 or EC50 that approximates it; ≥ and ≤ were set here for values at or beyond the usual limits of such assays.
Assay [2] concerns the target HLA-A*02:01. Briefly: IEDB peptide-MHC binding, purified MHC/competitive/fluorescence; filed as Kd, often an IC50 or EC50 that approximates it; ≥ and ≤ were set here for values at or beyond the usual limits of such assays.
Assay [3] addresses HLA-A*02:01. Briefly: IEDB peptide-MHC binding, purified MHC/competitive/fluorescence; ≥ and ≤ were set here for values at or beyond the usual limits of such assays.
The target in assay [4] is HLA-A*01:01. Briefly: IEDB peptide-MHC binding, purified MHC/competitive/radioactivity; filed as Kd, often an IC50 or EC50 that approximates it; ≥ and ≤ were set here for values at or beyond the usual limits of such assays.
The next assay addresses HLA-B*07:02. The assay is described as follows: IEDB peptide-MHC binding, purified MHC/direct/fluorescence; filed as Kd, often an IC50 or EC50 that approximates it; ≥ and ≤ were set here for values at or beyond the usual limits of such assays.
Assay [5] deals with HLA-A*02:01. The description is as above. The note with it: source organism: Haemophilus influenzae.
Another assay addresses HLA-A*69:01. The assay is described as above. To be noted: source organism: Haemophilus influenzae.
A further assay has as its target HLA-A*31:01. The description is as above. The note with it: source organism: Orthohantavirus hantanense.
For another assay, the target named is HLA-B*27:05. Described as above. The note with it: source organism: Orthohantavirus hantanense.
In another assay the target is HLA-B*18:01. The assay is described as above. To be noted: source organism: Yellow fever virus.
[6] abbreviates: source organism: Dengue virus 1 Brazil/97-11/1997.
Setting [7] is: source organism: Dengue virus 2 Jamaica/1409/1983.
Where [8] appears, read: source organism: Vaccinia virus WR.
Where [9] appears, read: source organism: Dengue virus 4 Dominica/814669/1981.
Where [10] appears, read: source organism: Dengue virus 4 Philippines/H241/1956.
Setting [11] is: source organism: Zaire ebolavirus.
[12] abbreviates: source organism: Vaccinia virus.
Setting [13] is: source organism: Orthohantavirus hantanense.
Where [14] appears, read: source organism: Dengue virus 3 Martinique/1243/1999.

On to SVIEKMEAL, for which, in the assay with HLA-A*26:01 (source organism: Dengue virus 2 16681-PDK53), the Kd came to 0.051 µM.

Turning to KSWGKAKII, the Kd with HLA-A*32:01 (setting [6]) was found to be 0.0474 µM.

In the case of KAKGSRAIWY, the Kd in the assay with HLA-A*30:02 (setting [7]) came to 0.00668 µM.

In the case of LQRGRLPLV, the Kd with HLA-A*30:01 (setting [8]) was 0.0933 µM.

With RAVLDDGIY, the Kd with HLA-A*30:02 (setting [6]) turned out to be 0.0448 µM.

With KLITFLFVI, the Kd in the assay with HLA-A*32:01 (setting [8]) was found to be 0.000409 µM.

As for MCFHQHLMY, the Kd with HLA-A*01:01 [1] worked out at 3.33 µM; with HLA-A*03:01 (source organism: Homo sapiens), 13.6 µM; with HLA-A*11:01 (source organism: Homo sapiens), 8.41 µM; in the assay with HLA-B*15:01 (source organism: Homo sapiens) it was 1.44 µM; with HLA-B*58:01 it was 0.937 µM.

Regarding LPLPWTAGA, the Kd with HLA-B*51:01 (setting [9]) is 2.83 µM.

Consider SVRLLNYFK, for which the Kd with HLA-A*30:01 (setting [8]) came out at 0.000238 µM.

Regarding CFKPALPTL, in the assay with HLA-A*30:01 (source organism: Vaccinia virus Copenhagen), the Kd amounted to 0.072 µM.

The sequence DLKPENILL displayed a Kd in the assay with HLA-A*02:01 [2] (source organism: Entamoeba histolytica) of at least 20 µM.

With KLKIALAKG, in the assay with HLA-A*30:01 (setting [8]), the Kd came out at 0.479 µM.

Turning to RSCTLPPLRY, the Kd with HLA-A*30:02 (setting [7]) is 0.0155 µM.

On to DARVYADPMA, for which the Kd in the assay with HLA-A*30:01 (setting [10]) turned out to be 9.27 µM.

Take GRLITVNPIV: the Kd with HLA-A*30:01 (setting [7]) is at least 20.4 µM.

HTRDPQNAA: the Kd with HLA-A*30:01 (setting [8]) came to 0.000907 µM.

For the sequence RGTTFAEGV, the IC50 with HLA-A*02:01 [3] (setting [11]) was 9.3 µM.

Regarding FLWVIILFQ, the IC50 with HLA-A*02:01 [3] (setting [11]) came to 12.7 µM.

As to KNENDQYIY, the dissociation constant Kd with HLA-A*30:02 (setting [7]) was 0.00015 µM.

For the sequence KMSILGVSI, the Kd with HLA-A*32:01 (setting [8]) came to 0.00236 µM.

As for VLTLATGPIL, in the assay with HLA-A*30:01 (setting [9]), the dissociation constant (Kd) stood at 1.33 µM.

The sequence TLCDMIKGT yielded an IC50 with HLA-A*02:01 [3] (setting [12]) of 23 µM.

With KTETTILDV, in the assay with HLA-A*01:01 [4] (setting [10]), the Kd stood at 6.2 µM.

For the sequence AKLTEAITA, the IC50 in the assay with HLA-A*02:01 [3] (setting [11]) was 28.6 µM.

As to HINALEYII, in the assay with HLA-A*32:01 (setting [8]), the Kd amounted to 0.631 µM.

In turn, LVSKFMSNG had a half-maximal inhibitory concentration (IC50) with HLA-A*02:01 [3] (setting [8]) of at least 201 µM.

Consider RAWDPQPAM, for which the Kd in the assay with HLA-B*07:02 (source organism: Mus musculus) came out at 0.0364 µM.

With AMVPLVMVI, the Kd was 0.435 µM in the assay with HLA-A*02:01 [5], 3.43 µM with HLA-A*69:01 and 0.834 µM with HLA-B*15:01 (source organism: Haemophilus influenzae).

As for VHSWEDIPY, in the assay with HLA-A*30:02 (setting [10]), the Kd stood at 3.36 µM.

Consider RLKPVGSAY, for which the Kd in the assay with HLA-A*03:01 (setting [13]) turned out to be 0.214 µM; with HLA-A*11:01 (setting [13]), 3.63 µM; with HLA-A*31:01 it was 0.401 µM; in the assay with HLA-B*07:02 (setting [13]), 0.676 µM; in the assay with HLA-B*15:01 (setting [13]), 0.357 µM; with HLA-B*27:05, 8.42 µM.

Sequence QEKWMTGRM gave a Kd with HLA-B*18:01 of 3.05 µM.

The sequence QVCIDILRS returned an IC50 with HLA-A*02:01 [3] (setting [12]) of at least 97.1 µM.

Sequence IIHDFIDNP yielded an IC50 with HLA-A*02:01 [3] (source organism: Sudan ebolavirus) of at least 85.4 µM.

Take FNYCEGTTVV: the Kd with HLA-B*51:01 (setting [14]) was 1.22 µM.

For the sequence APCKVPIEI, the Kd with HLA-B*51:01 (setting [10]) was at least 77.4 µM.

For ELNYVLWEGG, the Kd with HLA-A*32:01 (setting [10]) came to 9.34 µM.

For the sequence PQLSAIALG, the IC50 in the assay with HLA-A*02:01 [3] (setting [11]) was at least 423 µM.

Take TTKATTQIA: in the assay with HLA-A*30:01 (setting [8]), the Kd is 0.00652 µM.

For the sequence LTFNFTPKI, the Kd with HLA-A*32:01 (setting [8]) is 0.11 µM.

For RTIFNFHLI, in the assay with HLA-A*32:01 (setting [8]), the Kd worked out at 0.00209 µM.

As for TSLTQKVVIF, the Kd in the assay with HLA-A*01:01 [4] (setting [14]) came to 8.96 µM.

Turning to SGVLWDVPSP, the Kd with HLA-A*30:01 (setting [14]) amounted to 3.67 µM.

For MTMNIVNFF, the Kd in the assay with HLA-A*32:01 (setting [8]) amounted to 0.00193 µM.

The sequence MLVCGDDLV displayed an IC50 with HLA-A*02:01 [3] (source organism: Hepatitis C virus genotype 1) of 5 µM.

For GVVTKNGGY, the results for the Kd with HLA-A*26:01 (setting [14]) and with HLA-A*30:02 (setting [14]) were 1.21 µM and at least 61.3 µM, respectively.

Take EDMLSVWNRV: the Kd in the assay with HLA-A*32:01 (setting [6]) is at least 34.4 µM.

Regarding RTYGLRNSL, the Kd in the assay with HLA-A*32:01 (setting [8]) amounted to 0.000626 µM.

In the case of ILTLANWCL, the Kd with HLA-A*02:01 [2] (source organism: Escherichia coli O139:H28 str. E24377A) turned out to be 0.0002 µM.

(Values after the Immune Epitope Database (IEDB).)
